Consider 40 sequences from the nanobody polyreactivity screen of Harvey et al. (2022).

A short description of this series: yeast display, Sf9 membrane polyspecificity reagent, FACS + sequencing; frameworks hold sequencing errors. An outline of the steps:
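After 36–48 hours of galactose induction, yeast (Saccharomyces cerevisiae BJ5465) displaying a synthetic nanobody library were stained at 4 °C for 1 hour with 10% biotinylated, detergent-solubilized Sf9 membrane reagent. Streptavidin microbeads enriched the stained cells before FACS sorting into low and high (top ~1%) gates on anti-HA and streptavidin fluorescence. Each clone's polyreactivity label reflects its gate of origin.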
Turning to “QVQLVESWGGLVQAGGSLRLSCAASGSTFQPYAMGWYRQAPGKERELVAAIRSIAGSTYYADSVKGRFTISRDNAKITVYLQMNSLKPEDTAVYYCAADWWRVEMDYWGQGTQVTVSS”, the “polyreactivity (PSR sort gate)” value is reported as “low polyreactivity”.
In the case of “QVQLQESGGGLVRAGGSLRMSCAASGNIFDADIMGWYRQAPGKERELVASITDGRRTNYADSVKGRYTISRDSEKNTVYLQMNSLKPEDTAVYYCAAIAYPVVPTYFDYDSDYFHWGQGTQVTVRS”, the “polyreactivity (PSR sort gate)” value is on record as “high polyreactivity”.
Regarding “QVQLVESGGGLVQAGGSLRLSCAASGFIFSRYTMGWYRQAPGKERELVAAISRRGGNTYYADSVKGRFTISRDNGKNTVYLLMNSLKPEDTAVYYFAADSSYFKDEYWGQGTQVTVSS”, the “polyreactivity (PSR sort gate)” value was “low polyreactivity”.
For “QDQLVESAGGLVQAGGSLRLSCAASGLTFWDYAMGWSRQAPGKERELVAGINTRGTSTYYADSVKGRFTISRDNAKNNVYLQMNSLKPEDTAVYYCAARVRSELIKRYYWGQGSQVTVSS”, the “polyreactivity (PSR sort gate)” value is “high polyreactivity”.
As for “QVQLVESGGGLVQAGGSLRLSCAASGSIFYRNTMGWYRQAPGKERELVAAITRGTRTYYADSGKGRFTISRDNAKNTVYLQMNSLKPEDTAVYYCNARFVGRTGGSFDYWGQGTQVTVSS”, the “polyreactivity (PSR sort gate)” value is given as “high polyreactivity”.
The value for “QVQLVESGGGLVQAGGSLRLSCAASGLTFIYYAMGWYRQAPGKERELVAAISVSGGSTYYADSVKGRFTISRDNAKNTVYLQMNSLKPEDTAVYYCAADWFVHKPRYQYSFDYWGQGTQVTVSS” was “low polyreactivity”.
As for “QVQLVESGGGLVQAGGSLRLSCAASGRNFGWYAMGWYRQATGKERELVAAITSGSRTSYADSVKGRFTISRDNAKNTVYLQMNSLKPEDTAVYYCARRSYGIYYRSADDSWGQGTQVTVSS”, the “polyreactivity (PSR sort gate)” value was “high polyreactivity”.
In the case of “QVQLVESGGGLVQAGGSLRLSCAASGRWLYAMGWYIQAPAKERELVAAISRSGGSTNYADSVKGRFTISRDNAKNTVYLQMNSLKPEDTAVYYCATKYNADTRYDYWGQGTQVTVSS”, the “polyreactivity (PSR sort gate)” value is “low polyreactivity”.
The entry for “QVQLVESGGGLVQAGGSLRLSCAASGLTFADYAMGWYRQAPGKERELVAAISSSDTSTYYADSVKGRFTISRDNAKNTVYLQMNSLKPEDTAVYYCAADEGYVWPYYGWGFGKYDYWGQGTQVTVSS” is “low polyreactivity”; for “QVQLVESGGGLVQAGGSLRLSCAASGRTFGGNAMGWYRQAPGKERELVAVIRSTGGSTYYADSVKGRFTISRDTAKNTVYVQMNSLKPEDTAVYYCAKGRGRNFGYWGQGTQVTVSS” it is “high polyreactivity”; for “QDQLVESGGGLVQAGGSLRLSCAASGSIFSKNTMGWYRQAPGKERELVAAISGSGVSTYYADSVKGRFTISRDNAKNTVYLQMNSLKPEDTAVYYCAAGPRFRYYSGWYDYWGQGTQVTVSS” it is “high polyreactivity”.
Turning to “QVQLVESGGGLVQAGGSLRLSCAASGYTFIHNAMGWYRQAPGKERELVAAINRSGAITNYADSVKGRFTISRDNAKNTVYLQMNSLKPEDTAVYYCNADVDPLPPRYLHREVLKEYNYWGQGTQVTVSS”, the “polyreactivity (PSR sort gate)” value was “low polyreactivity”.
“QVQLVESGGGLVQAGGSLRLTCAASGYIFPYNVMGWYRQAPGKERELVAAITWRVVRTYYADSVKGRFTISRDNAKNTVYLQMNSLKPEDTAVYYCAALSRQSGDYWGQGTQVTVSS”: the “polyreactivity (PSR sort gate)” value is “high polyreactivity”.
The entry for “QVQLVESGGGLVQAGGSLRLSCAASGSIYRDALGWYRQAPGKERELVAAINFNGGRTYYADSVKGRFTISRDNAKNTVYLQMNSLKPEDTAVYYCAAVRSSNQGGFDYWGQGTQVTVSS” is “high polyreactivity”; for “QVQLVESGGGLVQAGGSLRLSCAASGSIFYLYAMGWYRQEPGKERELVAAINFRGGSTYADSVKGRFTISRDNAKNTVYLQMNSLKPEDTAVYYCAAKAAYRMNYWGQGTQVTVSS” it is “high polyreactivity”.
Turning to “QVQLVESVGCLVQAGGTLRLSCAATGRIFADYAMGWYRQAPGKERELVATITSGDRTYYADSVKGRFTTSRDNAKNTVYLQMNSLKPEDTAVYYCAAYKPWYVGLYPWYDYWGQGTQVTVSS”, the “polyreactivity (PSR sort gate)” value is listed as “low polyreactivity”.
Take “QVQLVESGGGLVQAGGSLRLSCAASGSIFTSYAMGWYRQAPGKERELVAAITSTGGSTYYADSVKGRFTISRDPAKNTVYLLMNSLKPEDTAVYYCNADGGTPYDYWGQGTQVTVSS”: the “polyreactivity (PSR sort gate)” value is given as “low polyreactivity”.
The value for “QVQLVESGGGLVQAGGSLRLSCAASGSTFWSNAMGWYRQAPGKERELVAAITRGGSTNYADSVKGRFTISRDNAKNTVYLQMNSLKPEDTAVYFCAATYVPYGRRLYAYYYWGQGTQVTVSS” was “high polyreactivity”; that for “QVQLVESGGGLVQAGGSLRLSCAASGSILGPYAMGWYRQAPGKERELVAANSQSGARTYYADSVKGRFTISRDNAKNTVYLQMNSLKPEDTAVYYCAAQSRKGGWSAYYYWGQGTQVTVSS” was “high polyreactivity”; that for “QVQLVESGGGLVQAGGSLRLSCAASGYTFRTNVMGWYRQAPGKERELVATINWRGGSTYYADSVKGRFTISRDNAKNTVYLQMNSLKPEDTAVYYCAKTYRYYRTMDYWGQGTQVTVSS” was “low polyreactivity”.
The entry for “QVQLVESGGRLVQAGGSLRLSCAPSGIILSLYAMGWYRQAPGKVRELVATIRFSGVSTYYADSVKGRFTISRDNAKNTLYLQLTSLKPEDTAVYYCNKHLATTFTVSRFDYWGQGTQVTVSS” is “low polyreactivity”; for “QVQLVESGGGLVQAGGSLRLSCAASGRILSGNAMGWYRQAPGKERELVAAITNAAITKYADSVKGRFTISRDNAKNTVYLQMNSLKPEDTAVYYCATDRYAYKLYDYWGQGTQVTVSS” it is “low polyreactivity”; for “QVQLVESGGGLVQAGGSLRLSCAASGRILPRNAMGWYRQAPGKERELVAAISWDGGSTYYADSVKGRFTISRDNAKNTDYLHMNSLKPEDTAVYYCATDYPSLHRGMDYWGQGTQVTVSS” it is “low polyreactivity”.
The value for “QVQLVESGGGLVQAGGSLRLSCAASGSIFAANTMGWYRQAPGKERELVATISWSSGRTRYADSVKGRFTISRDNAKNTVYLQMNSLKPEDTAVYYCAARYYYSRSRLYYYWGQGTQVTVSS” was “high polyreactivity”.
With “QVQLVESGGGLVQAGGSLRLSCAASGFTFVIHDMGWYRQAPGKERELVADITSGGDTYYADSVKGRFTISRDNAKNTVYLQMNSQKPEDTAVYYCAADIYPDWIYLLYGYWGQGTQGTVSS”, the “polyreactivity (PSR sort gate)” value is given as “low polyreactivity”.
“QVHLVESVGGLVQAGGSLRLSCAASGFIFNRNAMGRYRQAPGKERELVAAITRAGSTSYADSVKGRFTISRDNAKNTVYLQMNSLKPEDTGVYYCAAKPFWLYAPRGWRYHYGYWGQGTQVTVSS”: the “polyreactivity (PSR sort gate)” value is “high polyreactivity”.
Take “QVQLVESGGGLVQAGGSLRLSCAASGSIIHNYDMGWYRPAPGTETEFVAAINWSGGNTHYADSVKGRFTISRDNAKNTFYLQMNSLKPEDTAVYYCAADSGFDTAPYDYWGQGTQVTVSS”: the “polyreactivity (PSR sort gate)” value was “low polyreactivity”.
The entry for “QVQLVESGGGLVQAGGSLRLSCAASGSTFGFYAMGWYRQAPGKERELVAAISRGGSTNYADSVKGRFTISRDNAKNTVYLQMNSLKPEDTAVYYCAKAYHATSDYWGQGTQVTVSS” is “low polyreactivity”; for “QVQLVESGGGLVQAGGSLGLSCAASGFTFYFYAMGWYRQAPGKERELVAANSRGTSTYYADSVKGRFTISRDNAKKTVYLQMNRLKPEDTAVYYCAARGLWPYDDWGQGTQVTVSS” it is “low polyreactivity”; for “QVQLVESGGGLVQAGGSLRLSCAASGFTFDKNAMGWYRPAPGKERELVAAINIGSTYYADSVKGRFTISRDNAKNTVYLQMNRLKPEDTAVYYCAKEVPSGYWVNYYYWGQGTQVTVSS” it is “low polyreactivity”.
In the case of “QVQLVESGGGLVQAGGSLRLSCAASGSILWENAKGWYRQAPGKERELVATISVSGGGTYYADSVKGRFTISRDNAKNTVYLQMNSLKPEDTAVYYCNARYGNESQGWEDYWGQGTQVTVSS”, the “polyreactivity (PSR sort gate)” value is on record as “low polyreactivity”.
The value for “QVQLVESGGGLVQAGGSLRLSCAASGSTFSNYAMGWYRQAPGKDRELVAGIDWSGGSTYYADSVKGRFTISRDNAKNTVYLQMNSLKPEDTAVYYSAKRVWYHGRKLRGYYWGQGTQVTVSS” was “low polyreactivity”; that for “QVQLVESGGGLVQAGGSLRLSCAASGFTFSTNAMGWYRPAPGKEREVVAAITWRGGSTYYADSVKGRFTISRDNAKNTVYLQMNSLKPEDTAVYYCARRYRGSHVSYYKKFDYWGQGTQVTVSS” was “low polyreactivity”; that for “QVQLVESGGGLVQAGGSLRISCAASGSNFSYYAMGWYRQAPGKEREFVAAISWSGGSTYYADSVKGRFTISRDNAKNTVYLQMNSLKPEDTAVYYCAAELSLSWLVPEVPYYYWGQGTQVTGSS” was “low polyreactivity”.
As to “QVQLVESGRGLVQAGGSLRISCAASGSTFIFNTMGWYRQAPGKEMELVATITGDGRTNYADSVKGRFTISRDNAKNTVYLQMNSLKPEDTAVYYCDADGYDQYPLWSPPGDYWGQGTQVTVSS”, the “polyreactivity (PSR sort gate)” value is “low polyreactivity”.
The entry for “QVQLVESGGGLVQAGGSLRLSCAASGRTLVVNDMGWYRQAPGKERELVADINWSGGRTYYADSVKGRFTISRDNAKNTVYLQMNSLKPEDTAVYYCAADLSWRQYYREYDYWGQGTEVTVSS” is “high polyreactivity”; for “QVQLVDSGGGLVQAGGSLRLSCAASGLTFSKYAMGWYRQAPGKERELVATITRRGSSTYYADSVKGRFTISRDNAKNTVYLQMNSLKPEDTAVYYCNAVGVRRAIGYPSQTEYGYWGQGTQVTVSS” it is “high polyreactivity”; for “QVQLVESGGGLVQAGGSLRLSCAASGSTFDFYAMGWYRQAPGKERELVAAITSGGTTNYADSVKGRFTISRDNAKNTVYLQINSLKPEDTAVYYCNAYYLGWYRVRAVTGYYYWGQGTQVTVSS” it is “low polyreactivity”.
The value for “QVQLVESGGGLVQAGGSLRLSCAASGFIIIGYVMGWYRQAPGKERELVAAITSSGGSTYYEDSVKGRFTISRDNAKNTVYLQMNSLKPEDTAVYYCAAEYYLLWSGMEYWGQGTQVTVSS” was “low polyreactivity”; that for “QVQLVESGGGLVQAGGSLRLSCAASGRIFHWYAMGWYRQAPGKERELVAAIRWTGGSTYYADSVKGRFTISRDNAKNTVYLQMNSLKREDTAVYYCAAKGYTGIFYEMDYWGQGTQVTVSS” was “low polyreactivity”.
